Test system: K4 kissing-loop RNA reporter
Test: apparent KD of K4 kissing-loop reporter; higher = weaker reporter binding
Conditions: Eterna round: R107
Method: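 RNA-MaP round R107: designed RNA switches with theophylline, tryptophan, arginine or FMN aptamers are transcribed on-chip within common flanks. They are titrated with a labelled K4 kissing-loop RNA reporter in RNA-MaP buffer (100 mM Tris pH 7.5, 80 mM KCl, 4 mM MgCl2), without ligand or with the indicated ligand. Median apparent KD per design.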

[1] = input ligand: theophylline 20 uM
[2] = input ligand: tryptophan 2.4 mM
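Further: bound reporter read as fluorescence of individual clusters on recovered sequencing chips by microscopy, with normalized cluster intensities fitted with a binding model.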

Sequence | apparent KD of K4 kissing-loop reporter (input ligand: FMN 200 uM) | apparent KD of K4 kissing-loop reporter (input ligand: arginine 13.2 mM) | apparent KD of K4 kissing-loop reporter (input ligand: none) | apparent KD of K4 kissing-loop reporter [1] | apparent KD of K4 kissing-loop reporter [2]
ACCUAGUAGACAGGAUAUCACCAUGACAGUGAUGUUGUCAUGCUCGAUUUGAGGAAACUCAGAUCGUGAGAAGGGUCUAACGACU [FMN B SS t7] | 136 nM | 149 nM | 170 nM | 146 nM | 158 nM
UUUAAAUAUAGUGAUGUUAUAUAACAAUGACGAGGACCGGUACGGCCGCCACUCGAGAGAGAUAAUGGUCAUACAAAUGUAUGUU [AstrosSSTryA#10] | 672 nM | 677 nM | 738 nM | 789 nM | 529 nM
CCUAGUGAUGUUAGGUCGUGCUCCUAUGAUACCAGCGUAGUCACUCGCCCUUGGCAGCAUUCCUUAUAAGGCGGUCGGGCGCGGU [theeternabot_sameState_KL_Theo_A_34] | 218 nM | 104 nM | 193 nM | 158 nM | 154 nM
GAGUCGGCACAAGGAUAUAGGUGUAGUGAUGUUAUGUCUCCUUGACUCACUCGUUACCCUCAACGUCUAGAAGGUGUGAAUGCAG [theeternabot_exclusion_KL_FMN_B_46] | 328 nM | 240 nM | 290 nM | 229 nM | 251 nM
AAAUUCUUUUUUUUAUAUAACGAUUCAGAAGGAGCGAGGUAGAACUCAGGUAGGUCGCUGAAUAUAAGACUAGUGAUGUUAGUAA [#01 K4 Arginine A Same State] | 175 nM | 193 nM | 224 nM | 238 nM | 156 nM
GGAGGUUGGUGCGAUACCAGACCUGCAGUGAUGUUGCGCCAAAGUGAGUGAUGUUCACCGGUCCCUUGGCAGCGCGUCCCUUUAG [Same State Theophylline B GF 15] | 848 nM | 729 nM | 1190 nM | 707 nM | 860 nM
AGUUCUUGCCGAAGGAGCGAGGCAGAGUGAUGUUCUGCACGAGGUCGAAAGACCUCGCUGCCUCAGGUAGGUCGCGGCAUGAACA [Omei KL Arginine B Exc A v2] | 897 nM | 504 nM | 1130 nM | 614 nM | 1300 nM
GGGCGUGGCGCGGCCGCCACUGGGCCUGGGCGCUCGCUGAGUGAUGUUCGUCGGCGGCUGGGUCGUAGGACCGGGUGCUGGUUGG [BDazzled - #7 SS Tryptophan B] | 529 nM | 309 nM | 438 nM | 424 nM | 302 nM
UCUGCUGUAUAUGAUACCAGCAGUGAGAGACCAGAAGUAUAGUGAUGUUAUAUGAGAGAAUGCCCUUGGCAGCGUGUGCGGGUGG [SSTheophylB.Z] | 85.4 nM | 87.6 nM | 67.5 nM | 84.7 nM | 61.6 nM
GUGCGGCUAGUGAUGUUGGUUGCGUGGGAAGGAGCGCAGAAACAUGCAGGUAGGUCGCCCACACCUCUGAAAGAAGGUUAAUUCA [Biistian] | 218 nM | 140 nM | 203 nM | 231 nM | 207 nM
AGGAUCACGUCAGUGAUGUUGACGAGAGAUACCAGAGACGAAAGUCUCCCUUGGCAGCUCAUCGUGAUCCGUGACAAAGGUCACA [Omei KL hio A SS C v4] | 338 nM | 203 nM | 317 nM | 278 nM | 297 nM
ACCCGGGCCCGAAAGGGCCCGGGAAGAGAUACCAGCAGCGAAAGCUGCCCUUGGCAGCUCACUUAGUGAUGUUGAGUAUAGGGUA [#22 K4 Theophylline A Same State] | 1100 nM | 463 nM | 279 nM | 185 nM | 361 nM
UUUAUAAAGUCGGCCGCCACUGGAUUUAUAUUUGUUUAGUCUGGAUCAAAGUGAUGUUUUGAGUCCAGGACCGGGACAUUUGUUA [whbob_Ex_Tryp_B_w36] | 92.1 nM | 85.9 nM | 93.5 nM | 91.9 nM | 172 nM
GCGAAGAAGGUUGAUACCAGUCUUGCGUGUCAAGCGCCAGUGAUGUUGGGCCUGUAGAUCGACCCUUGGCAGCAACCUCGAAAUG [theeternabot_sameState_KL_Theo_B_28] | 836 nM | 563 nM | 844 nM | 748 nM | 655 nM
CAUUCGAAAUGCAGUGAUGUUGCAACCGAUACCAGUAUCGAAAGAUACCCUUGGCAGCGGAAAACCGCUACGUAUUUUUUGAAUG [Ex Theophylline A K4 26] | 204 nM | 288 nM | 276 nM | 243 nM | 237 nM
UGACUACAGGAAUAAUAAUCCUAGUGAUGUUAGGAUAUGCUGAUAAGCAGAAGGAACUGAGAUCGAAAGAUCUCAAAAGUAGUCU [FmnAX 28 Mat Inspired #SwitchBubble #StaticStem #K4Early] | 139 nM | 89.3 nM | 92.9 nM | 106 nM | 96.7 nM
CAUACGCAUGGAGGAUAUGAGAUUUCUCAUAUUAUUUAAUAUUCUCAGUGAUGUUGAGAAAUAAACUCAGAAGGCCAUGUGUAUG [Ex FMN B 3] | 256 nM | 365 nM | 313 nM | 405 nM | 304 nM
CCGAAGAACCAGUGAUGUUGGUUGACUAGACAGGAUAUGAGCAACAUCAGAAGGGUCUGGCUUCGGGAGUGGGUCACGCUGACCU [Iserreanor] | 271 nM | 282 nM | 426 nM | 912 nM | 808 nM
AAGCAGUCCCUUGUUGUCAUCGAAGAUGAACGAGGACCGGUACGGCCGCCACUCGGAGUGAUGUUCCGAUGGCUGCAAAAUAAAA [MatMod 21 - Jieux - Exclusion - Tryptophan A] | 101 nM | 96.7 nM | 105 nM | 101 nM | 108 nM
UUAUACUCAUGUAAAGAACUAGUAACCGAAGGAGCGACAUAAAAGUCAGGUAGGUCGCGGAUUUCUCAGUGAUGUUGAGAGCAUU [JR_SSArginiA_Sub012] | 109 nM | 192 nM | 121 nM | 185 nM | 93.9 nM
CGUGCCCAGCCGGAUACCAGUGACCCGCUGGGAACCGCGGGCCCAGAGUGAUGUUCGGGACACCCUUGGCAGCCGCCUGGGCGGG [#2 Same State - Theophylline B Attempt #15 (HarryS)] | 1020 nM | 392 nM | 1100 nM | 512 nM | 453 nM
